Measured values reported in article PMC5679609 (PLoS ONE, 2017).

Target: T1, Tiam1 (human (endogenous in MCF-7), UniProt Q13009 1-1591)
T1 construct: also called Rac1-GEF; source: endogenous, MCF-7 lysate
Test: co-IP; anti-Tiam1 antibody, lysates of nt MCF-7 and of the lines that stably express the SDC4 constructs; Mg2+-lysis buffer (25 mM HEPES pH 7.5, 150 mM NaCl, 1% Igepal CA-630, 5 mM MgCl2, 1 mM EDTA, 2% glycerol); blot with anti-GFP-HRP or anti-Rac1
Conditions: partners not purified

T1 sequence (Q13009 whole entry): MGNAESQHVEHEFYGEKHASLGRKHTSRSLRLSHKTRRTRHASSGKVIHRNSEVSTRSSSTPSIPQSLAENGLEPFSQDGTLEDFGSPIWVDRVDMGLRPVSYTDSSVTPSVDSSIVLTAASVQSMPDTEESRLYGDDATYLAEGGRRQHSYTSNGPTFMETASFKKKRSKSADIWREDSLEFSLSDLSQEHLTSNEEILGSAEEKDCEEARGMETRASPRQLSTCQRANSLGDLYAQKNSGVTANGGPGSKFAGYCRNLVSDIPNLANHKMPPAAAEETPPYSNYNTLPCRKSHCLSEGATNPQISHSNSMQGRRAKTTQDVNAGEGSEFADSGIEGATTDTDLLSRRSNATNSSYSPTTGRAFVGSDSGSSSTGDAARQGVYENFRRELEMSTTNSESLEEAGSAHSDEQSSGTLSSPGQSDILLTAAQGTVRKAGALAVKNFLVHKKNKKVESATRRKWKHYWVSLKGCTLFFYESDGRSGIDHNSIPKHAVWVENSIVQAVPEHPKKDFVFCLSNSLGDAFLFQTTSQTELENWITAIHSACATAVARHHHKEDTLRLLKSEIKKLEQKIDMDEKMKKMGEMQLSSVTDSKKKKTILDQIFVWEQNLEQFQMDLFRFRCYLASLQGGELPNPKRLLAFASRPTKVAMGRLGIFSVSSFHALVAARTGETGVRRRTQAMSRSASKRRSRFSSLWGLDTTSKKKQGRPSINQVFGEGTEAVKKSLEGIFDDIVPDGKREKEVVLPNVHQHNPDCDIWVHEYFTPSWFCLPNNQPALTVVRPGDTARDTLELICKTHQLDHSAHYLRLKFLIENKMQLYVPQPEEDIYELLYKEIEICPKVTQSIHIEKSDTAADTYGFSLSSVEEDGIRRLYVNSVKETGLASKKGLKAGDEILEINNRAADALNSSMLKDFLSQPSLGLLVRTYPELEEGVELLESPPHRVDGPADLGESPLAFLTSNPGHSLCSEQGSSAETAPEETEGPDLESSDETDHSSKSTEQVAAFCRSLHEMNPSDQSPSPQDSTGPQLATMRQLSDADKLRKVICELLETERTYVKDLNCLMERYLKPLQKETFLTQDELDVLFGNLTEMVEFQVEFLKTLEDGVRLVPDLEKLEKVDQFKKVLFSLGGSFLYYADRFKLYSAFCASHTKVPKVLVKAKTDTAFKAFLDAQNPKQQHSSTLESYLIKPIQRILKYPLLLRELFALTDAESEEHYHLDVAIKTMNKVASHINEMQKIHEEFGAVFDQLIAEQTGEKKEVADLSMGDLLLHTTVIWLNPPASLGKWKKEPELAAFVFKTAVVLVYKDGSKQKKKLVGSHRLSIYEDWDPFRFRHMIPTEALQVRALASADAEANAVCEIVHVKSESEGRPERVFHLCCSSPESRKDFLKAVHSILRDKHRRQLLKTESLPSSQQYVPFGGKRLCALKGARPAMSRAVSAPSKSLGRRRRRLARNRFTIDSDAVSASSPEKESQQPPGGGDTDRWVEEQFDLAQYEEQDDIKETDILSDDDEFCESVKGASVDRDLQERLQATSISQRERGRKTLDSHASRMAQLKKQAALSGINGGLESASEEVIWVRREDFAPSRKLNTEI

fold binding against the non-phosphorylated SDC4: ~10 fold
B1: Ser179Glu SDC4 (phosphomimetic), with GFP in the extracellular domain (natural protein, human, UniProt P31431 19-198, looked up)
chain: ESIRETEVIDPQDLLEGRYFSGALPDDEDVVGPGQESDDFELSGSGDLDDLEDSMIGPEVVHPLVPLDNHIPERAGSGSQVPTEPKKLEENEVIPKRISPVEESEDVSNKVSMSSTVQGSNIFERTEVLAALIVGGIVGILFAVFLILLLMYRMKKKDEGEYDLGKKPIYKKAPTNEFYA
notes: syndecan-4 (SDC4), human, GenBank CAG46871.1; GFP inserted into the extracellular domain at position 131; also called phosphomimetic SDC4; source: MCF-7, stably transfected, in lysate; not shown: GFP, internal (at position 131), kept
